Laboratory results: article doi:10.1101/2025.08.11.669711, “Site-Specific Nanobody Inhibitors of the Proteasomal Deubiquitinase UCH37” (bioRxiv, 2025)
Residue numbers refer to the chain shown, from its start. Names may count otherwise.

What was measured:
UCH37 [1] = target: T1, UCH37 (Homo sapiens, strain); assay: not stated; recombinant purified Nb-v1 with free UCH37 (Supplementary Figure 2b); conditions: both partners purified
T1 construct: from His8-MBP-TEV-UCH37 in pVP16 (DNASU); The purification of free UCH37 is not described; in the complexes with RPN13 the His-MBP tag was removed with TEV protease; also called UCHL5; free UCH37; source: E. coli, purified (His-MBP-TEV-UCH37 construct; individually purified for the crystal)
T1 chain: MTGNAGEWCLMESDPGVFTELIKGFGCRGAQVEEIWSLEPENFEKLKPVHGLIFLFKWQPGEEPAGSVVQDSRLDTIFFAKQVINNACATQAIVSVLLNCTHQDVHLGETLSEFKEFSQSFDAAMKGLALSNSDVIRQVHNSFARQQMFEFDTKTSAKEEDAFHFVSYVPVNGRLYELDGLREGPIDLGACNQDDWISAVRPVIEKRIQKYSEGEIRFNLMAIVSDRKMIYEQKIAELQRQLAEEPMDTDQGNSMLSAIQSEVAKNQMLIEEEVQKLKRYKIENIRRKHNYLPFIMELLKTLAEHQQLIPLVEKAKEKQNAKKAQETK

UCH37•RPN13^DEUBAD [2] = target: T2, UCH37•RPN13^DEUBAD (Homo sapiens, strain); assay: SEC-MALS; nanobodies incubated with UCH37•RPN13^DEUBAD on ice 30 min; TSKgel G3000SWXL; 50 mM sodium phosphate pH 6.5, 150 mM sodium chloride, 10% isopropanol; room temperature; conditions: both partners purified
T2 construct: from His8-MBP-TEV-UCH37 in pVP16 (DNASU); RPN13 (ADRM1) DEUBAD domain, aa 253-407, cloned from His10-RPN13 in pET19b; source: E. coli BL21(DE3) pLysS, co-purified (Ni-NTA, TEV, GST resin, 3C, Superdex 200); not shown: His8, N-terminal, cleaved; MBP, N-terminal, cleaved; GST, N-terminal, cleaved
T2 chain 1: T1 chain
T2 chain 2: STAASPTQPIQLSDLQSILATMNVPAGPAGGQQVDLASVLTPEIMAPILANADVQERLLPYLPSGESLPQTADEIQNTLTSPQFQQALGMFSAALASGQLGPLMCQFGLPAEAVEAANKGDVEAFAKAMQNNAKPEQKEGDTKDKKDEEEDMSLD

UCH37•RPN13 = target: T3, UCH37•RPN13 (Homo sapiens, strain); assay: MST; nanobody labelled with fluorescein isothiocyanate at 20 nM (Nb-ncS1) or 50 nM (Nb-cS1); UCH37•RPN13 titrated 4 μM to 0.12 nM or 46 μM to 2.8 nM; 50 mM Tris pH 7.4, 150 mM NaCl, 10 mM MgCl2, 0.05% tween-20; room temperature; 1:1 Kd fit; duplicates; conditions: both partners purified
T3 construct: from His8-MBP-TEV-UCH37 in pVP16 (DNASU); RPN13 (ADRM1), His10-RPN13 in pET19b; source: E. coli BL21(DE3) pLysS, co-purified (amylose, TEV, Ni-NTA, Superdex 200); not shown: His8, N-terminal, cleaved; MBP, N-terminal, cleaved
T3 chain 1: T1 chain
T3 chain 2: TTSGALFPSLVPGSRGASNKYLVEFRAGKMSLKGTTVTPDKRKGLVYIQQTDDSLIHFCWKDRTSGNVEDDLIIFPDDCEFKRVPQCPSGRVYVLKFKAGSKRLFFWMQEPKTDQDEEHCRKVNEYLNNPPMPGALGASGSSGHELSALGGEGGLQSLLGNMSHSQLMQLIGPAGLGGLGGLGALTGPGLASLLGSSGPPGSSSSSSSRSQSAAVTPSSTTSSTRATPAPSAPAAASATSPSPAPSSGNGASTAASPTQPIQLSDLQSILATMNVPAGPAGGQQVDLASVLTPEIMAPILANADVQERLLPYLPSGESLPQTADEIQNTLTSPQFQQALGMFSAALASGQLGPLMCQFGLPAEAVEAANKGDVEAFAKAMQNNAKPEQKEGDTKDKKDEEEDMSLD

UCH37•RPN13^DEUBAD [3] = target: T2, UCH37•RPN13^DEUBAD; assay: native MS; 150 mM ammonium acetate pH 6.8; UCH37•RPN13^DEUBAD variants premixed with Nb-ncS1 in equimolar ratio, 1 hour on ice; final 10 uM; nanospray, Synapt G2; conditions: both partners purified
Ub-UCH37•RPN13^DEUBAD = target: T4, Ub-UCH37•RPN13^DEUBAD (Homo sapiens, strain, active site cysteine covalently linked to Ub propargylamine (Ub-PA) | C-terminal propargylamine after residue 75, linked to the active site cysteine of UCH37; biotin on the Avi tag in the …); assay: as above; conditions: both partners purified
T4 construct: from His8-MBP-TEV-UCH37 in pVP16 (DNASU); RPN13 (ADRM1) DEUBAD domain, aa 253-407, cloned from His10-RPN13 in pET19b; ubiquitin residues 1-75 (Ub_(1-75)-propargylamine, made from Avi-Ub_(1-75)-intein); In the pull-down it was offered as a mixture with unconjugated UCH37•RPN13^DEUBAD; also called Ub conjugated UCH37•RPN13^DEUBAD; UCH37•RPN13^DEUBAD -Ub-PA; source: UCH37•RPN13^DEUBAD (E. coli, …)

UCH37 [4] = target: T1, UCH37; assay: SPR; BIACORE T200, His-Nb immobilised on NTA chip (about 30 RU); purified UCH37 injected, single cycle kinetics; 50 mM HEPES pH 7.5, 50 mM NaCl, 50 μM EDTA, 0.005% TWEEN 20; 25 °C; 1:1 model; conditions: both partners purified
UCH37 (endogenous) [5] = target: T5, UCH37 (endogenous) (Homo sapiens (HEK293FT, endogenous)); assay: co-IP; WT HEK293FT transfected with HA-Flag-tagged nanobodies; anti-FLAG resin 3 hours 4 °C; lysis in 50 mM HEPES pH 7.5, 50 mM NaCl, 5 mM MgCl2, 2 mM ATP, 1 mM DTT, 10% glycerol; blots of UCH37 and proteasome subunits; conditions: partners not purified
T5 construct: endogenous UCH37 (UCHL5) of HEK293FT cells; also called UCHL5
T5 chain: T1 chain

[6] = target: translation elongation factor EEF2 (Homo sapiens, UniProt P13639); assay: affinity purification with mass spectrometry; as a15, but UCH37KO HEK293FT cells; conditions: partners not purified
HSP70 chaperone HSPA1B = target: T6, HSP70 chaperone HSPA1B (Homo sapiens, UniProt P0DMV9); assay: as above; conditions: partners not purified
T6 construct: endogenous HSPA1B; source: endogenous, UCH37KO HEK293FT lysate
T6 sequence (P0DMV9 whole entry): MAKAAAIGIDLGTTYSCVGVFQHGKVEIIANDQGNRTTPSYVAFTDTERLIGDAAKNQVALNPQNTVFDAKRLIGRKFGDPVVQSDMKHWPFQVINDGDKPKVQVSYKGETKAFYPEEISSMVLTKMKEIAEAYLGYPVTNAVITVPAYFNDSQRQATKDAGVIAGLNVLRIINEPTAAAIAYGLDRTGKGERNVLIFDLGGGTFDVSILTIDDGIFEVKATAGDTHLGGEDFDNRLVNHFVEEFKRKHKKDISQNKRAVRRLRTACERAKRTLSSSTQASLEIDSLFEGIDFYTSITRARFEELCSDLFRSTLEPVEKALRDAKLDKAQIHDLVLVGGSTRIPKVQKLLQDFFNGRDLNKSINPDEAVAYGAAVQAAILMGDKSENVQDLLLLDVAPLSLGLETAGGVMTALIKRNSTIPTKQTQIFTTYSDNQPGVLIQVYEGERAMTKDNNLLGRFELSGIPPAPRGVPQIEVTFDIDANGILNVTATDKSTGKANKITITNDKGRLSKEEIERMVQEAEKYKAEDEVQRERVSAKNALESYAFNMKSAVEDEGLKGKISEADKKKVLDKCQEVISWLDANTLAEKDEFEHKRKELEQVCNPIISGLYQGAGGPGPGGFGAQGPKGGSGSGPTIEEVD

UCH37 (endogenous) [7] = target: T5, UCH37 (endogenous); assay: affinity purification with mass spectrometry; WT HEK293FT transfected with HaloTag nanobodies; immunoprecipitation, on-bead trypsin digestion, TMT labelling; compared with Halo-Nb-ctrl; conditions: partners not purified

B1: Nb-v1 (recombinant) (VHH)
VHH: QVQLQESGGGLVQAGGSLRLSCAASGYIFRSYRMGWYRQAPGKERELVAAIGLGGNTYYADSVKGRFTISRDNAKNTVYLQMNSLKPEDTAVYYCAALHGKPPAFSPFAYWGQGTQVTVSS
notes: most enriched clone of the first yeast display selection, parent of Nb-ncS1 (Nb-ncS1 = Nb-v1 with Q1R, L80Q, H99Y, A109P); His-tagged nanobodies were made in E. coli BL21 (DE3) by the general method; source: recombinant production and purification
Kd (UCH37 [1]): 300 pM

B2: Nb-cS1 (His-tagged) (VHH)
VHH: QVQLQESGGGLVQAGGSLRLSCAASGYISRPRTMGWYRQAPGKEREFVAIISNGAITNYADSVKGRFTISRDNAKNTVYLQMNSLKPEDTAVYYCAAGRNIWHAYWGQGTQVTVSS
notes: synthetic nanobody from a yeast display library: clone Nb-v2 matured with L47F, T50I, K99R; Cloned into pET28b; Labelled with fluorescein isothiocyanate for MST; also called 6xHis-tagged Nb-cS1; cNb; source: E. coli BL21 (DE3), purified (Ni-NTA, Superdex 75)
stoichiometry N (UCH37•RPN13^DEUBAD [2]): 1
Kd (UCH37•RPN13): 200000 pM

B3: Nb-ncS1 (His-tagged) (VHH)
VHH: B1 VHH with Q1R, L80Q, H99Y, A109P
notes: as the VHH of Nb-v1 with the four stated changes; Cloned into pET28b; Labelled with fluorescein isothiocyanate for MST; also called 6xHis-tagged Nb-ncS1; His-Nb; source: E. coli BL21 (DE3), purified (Ni-NTA, Superdex 75)
stoichiometry N (UCH37•RPN13^DEUBAD [3]): 1
stoichiometry N (Ub-UCH37•RPN13^DEUBAD): 1
Kd (UCH37 [4]): 125 pM

B4: HA-Flag-tagged Nb-cS1 (VHH)
VHH: B2 VHH
notes: as the VHH of m15 (Nb-cS1); source: HEK293FT, transiently transfected (1436 pcDNA3 Flag HA vector), in lysate or in fixed cells
binding result (UCH37 (endogenous) [5]): binds

B5: Halo-Nb-cS1 (expressed in cells) (VHH)
VHH: B2 VHH
notes: as the VHH of m15 (Nb-cS1); The authors suspect that this fusion is misfolded in human cells; also called Halo-tagged Nb-cS1; source: HEK293FT (WT or UCH37KO), transiently transfected, in lysate; not shown: HaloTag, C-terminal, kept
binding result [6]: binds
binding result (HSP70 chaperone HSPA1B): binds
binding result (UCH37 (endogenous) [7]): binds
